Assays:
[1] = target: RBD-L452Q F490S (SARS-CoV-2, UniProt P0DTC2)
[2] = target: RBD-E406W (SARS-CoV-2, UniProt P0DTC2)
[3] = target: RBD Omikron (SARS-CoV-2, Omicron variant)
[4] = target: RBD-E484K (SARS-CoV-2, UniProt P0DTC2)

B1: Antibody 1F12 (antibody, V domains shown)
VH: QSLEESGGDLVKPGASLTLTCTASGFSFSNNYVMCWVRQAPGKGLEWIGCINTGSGSTYYATWAKGRFTISKISSTTVTLQMTSLTAADTATYFCARSTTYYNYIGGNWIYVMDGFNLWGPGTLVPVSS
VL: AQVLTQTPSSVSEPVGGTVTINCQASENIYSSLAWYQQKPGQPPKLLIYDASDLASGVPSRFSGSGSGTEYTLTISGVECDDAATYYCQQGYTVDNIDNTFGGGTEVVVK
Kd [1]: 0.33 nM | koff [1]: 0.0019 s⁻¹ | kon [1]: 5.8e+06 M⁻¹ s⁻¹ | Kd [2]: 0.75 nM | koff [2]: 0.0016 s⁻¹ | kon [2]: 2.1e+06 M⁻¹ s⁻¹ | Kd [3]: 0.28 nM | koff [3]: 0.0012 s⁻¹ | kon [3]: 2e+06 M⁻¹ s⁻¹ | Kd [4]: 0.31 nM | koff [4]: 0.00081 s⁻¹ | kon [4]: 2.6e+06 M⁻¹ s⁻¹
